Reference: patent publication US20250011363A1, “OPTIMIZED SHORTENED PEPTIDE THAT BINDS TO ACETYLCHOLINE RECEPTOR, AND USE THEREOF” (SKINMED CO., LTD., priority 2021, published 2025)

These binders were tested against acetylcholine receptor (assay: SPR, AchR immobilised on CM5 chip, peptide at 10 uM).

Binding affinity (RU)	Binder
12 RU	KCWVR [5mer-1154]
15 RU	KTWMK [5mer-849]
23 RU	KYNPR [5mer-1158]
22 RU	KDSMK [5mer-852]
21 RU	RNTER [5mer-854]
21 RU	KTSHR [5mer-1157]
13 RU	RYHIK [5mer-853]
25 RU	KETDR [5mer-1149]
13 RU	KKMNK [5mer-1156]
33 RU	RIMGR [5mer-858]
17 RU	KKWKK [5mer-1159]
12 RU	KFTNR [5mer-1150]
18 RU	RFMKK [5mer-855]
26 RU	KHNAR [5mer-859]
19 RU	KMCWK [5mer-851]
13 RU	KYDIR [5mer-850]
26 RU	KTNAR [5mer-1151]
25 RU	RYDMK [5mer-1155]
18 RU	KENFK [5mer-1152]
23 RU	KMENR [5mer-857]
23 RU	KPPDR [5mer-856]
27 RU	RDAPR [5mer-1153]

These binders were tested against acetylcholine receptor (assay: SPR, AchR immobilised on chip, peptide 10 uM).

Binder	Binding affinity (RU)
KRQRTK [6mer-1-231]	136 RU
RRRVRR [6mer-1-222]	145 RU
KRRVRK [6mer-1-213]	127 RU
RKGYCK [6mer-1-230]	128 RU
RKRYSR [6mer-1-215]	136 RU
RRSYCK [6mer-1-214]	139 RU
KRLVQK [6mer-1-227]	139 RU
KKWFQR [6mer-1-221]	148 RU
KRVLQR [6mer-1-217]	135 RU
RKSIQR [6mer-1-216]	148 RU
KRQRQK [6mer-1-220]	148 RU
KRGFLR [6mer-1-224]	142 RU
KKRRRK [6mer-1-223]	133 RU
KRVIYK [6mer-1-228]	139 RU
KKQVTR [6mer-1-218]	126 RU
RRWITR [6mer-1-226]	128 RU
RRRLLR [6mer-1-229]	153 RU
RRLFCR [6mer-1-219]	121 RU

More lines, now with the values ahead:

Binding affinity (RU)	Binder
145 RU	RRVQLK [6mer-1-253]
142 RU	RRGFRR [6mer-1-245]
148 RU	RRSRRR [6mer-1-240]
133 RU	RKVQSK [6mer-1-251]
148 RU	KRQYLK [6mer-1-242]
141 RU	RKQRTK [6mer-1-260]
136 RU	KKWYLR [6mer-1-243]
144 RU	KRRQSK [6mer-1-268]
137 RU	RKSLSK [6mer-1-254]
139 RU	KRRLLR [6mer-1-267]
128 RU	RRQYQR [6mer-1-264]
142 RU	RRVICR [6mer-1-250]
142 RU	RKGVSR [6mer-1-249]
124 RU	RKWVTR [6mer-1-257]
125 RU	KRVRTK [6mer-1-256]
121 RU	KRWVTR [6mer-1-261]
154 RU	KKGQQK [6mer-1-238]
148 RU	RRLYYK [6mer-1-241]
136 RU	RKVLCR [6mer-1-239]

Binding affinity (RU)	Binder
144 RU	KKGRLK [6mer-1-266]
145 RU	RKSVCR [6mer-1-265]
146 RU	RKSYTK [6mer-1-263]
139 RU	KKGFQK [6mer-1-255]
146 RU	RRRICK [6mer-1-232]
151 RU	RKLISR [6mer-1-236]
141 RU	KRRYRK [6mer-1-259]
131 RU	RRWIRR [6mer-1-252]
137 RU	RKSRYK [6mer-1-237]
151 RU	RRLIYK [6mer-1-248]
148 RU	KKRYCR [6mer-1-235]
128 RU	KKWQSR [6mer-1-233]
142 RU	RKLICK [6mer-1-1225]
122 RU	KKVRQK [6mer-1-247]
144 RU	RRRVQK [6mer-1-244]
139 RU	RKQLQR [6mer-1-262]
137 RU	KKLQYK [6mer-1-258]
122 RU	RRLVSR [6mer-1-246]
142 RU	RRGISR [6mer-1-234]
